Test results as given in patent US20230048960A1 (University of Washington, published 2023).
Square brackets hold non-standard residues; d marks the D form. dNle = CCCC[C@@H](N)C(=O)O; Nle = CCCC[C@H](N)C(=O)O

B1: AP501m (peptide)
peptide: Ac-RGN[dW]N[dE]S[dK]MNEYYGW[dM]L[dM]C[dT]MGR-NH2
SMILES: CSCC[C@H](NC(=O)[C@@H](CCCCN)NC(=O)[C@H](CO)NC(=O)[C@@H](CCC(=O)O)NC(=O)[C@H](CC(N)=O)NC(=O)[C@@H](Cc1c[nH]c2ccccc12)NC(=O)[C@H](CC(N)=O)NC(=O)CNC(=O)[C@H](CCCNC(=N)N)NC(C)=O)C(=O)N[C@@H](CC(N)=O)C(=O)N[C@@H](CCC(=O)O)C(=O)N[C@@H](Cc1ccc(O)cc1)C(=O)N[C@@H](Cc1ccc(O)cc1)C(=O)NCC(=O)N[C@@H](Cc1c[nH]c2ccccc12)C(=O)N[C@H](CCSC)C(=O)N[C@@H](CC(C)C)C(=O)N[C@H](CCSC)C(=O)N[C@@H](CS)C(=O)N[C@@H](C(=O)N[C@@H](CCSC)C(=O)NCC(=O)N[C@@H](CCCNC(=N)N)C(N)=O)[C@H](C)O
B2: AP535m (peptide)
peptide: Ac-RGE[dY]N[dC]F[dW]MNEYYGW[dT]M[dN]M[dR]MGK-NH2
SMILES: CSCC[C@H](NC(=O)[C@@H](CCCNC(=N)N)NC(=O)[C@H](CCSC)NC(=O)[C@@H](CC(N)=O)NC(=O)[C@H](CCSC)NC(=O)[C@H](NC(=O)[C@H](Cc1c[nH]c2ccccc12)NC(=O)CNC(=O)[C@H](Cc1ccc(O)cc1)NC(=O)[C@H](Cc1ccc(O)cc1)NC(=O)[C@H](CCC(=O)O)NC(=O)[C@H](CC(N)=O)NC(=O)[C@H](CCSC)NC(=O)[C@@H](Cc1c[nH]c2ccccc12)NC(=O)[C@H](Cc1ccccc1)NC(=O)[C@@H](CS)NC(=O)[C@H](CC(N)=O)NC(=O)[C@@H](Cc1ccc(O)cc1)NC(=O)[C@H](CCC(=O)O)NC(=O)CNC(=O)[C@H](CCCNC(=N)N)NC(C)=O)[C@H](C)O)C(=O)NCC(=O)N[C@@H](CCCCN)C(N)=O
B3: AP537m (peptide)
peptide: Ac-RGE[dL]N[dY]F[dW]MNECYGW[dT]M[dN]M[dR]MGK-NH2
SMILES: CSCC[C@H](NC(=O)[C@@H](CCCNC(=N)N)NC(=O)[C@H](CCSC)NC(=O)[C@@H](CC(N)=O)NC(=O)[C@H](CCSC)NC(=O)[C@H](NC(=O)[C@H](Cc1c[nH]c2ccccc12)NC(=O)CNC(=O)[C@H](Cc1ccc(O)cc1)NC(=O)[C@H](CS)NC(=O)[C@H](CCC(=O)O)NC(=O)[C@H](CC(N)=O)NC(=O)[C@H](CCSC)NC(=O)[C@@H](Cc1c[nH]c2ccccc12)NC(=O)[C@H](Cc1ccccc1)NC(=O)[C@@H](Cc1ccc(O)cc1)NC(=O)[C@H](CC(N)=O)NC(=O)[C@@H](CC(C)C)NC(=O)[C@H](CCC(=O)O)NC(=O)CNC(=O)[C@H](CCCNC(=N)N)NC(C)=O)[C@H](C)O)C(=O)NCC(=O)N[C@@H](CCCCN)C(N)=O
B4: AP534m (peptide)
peptide: Ac-RGE[dNle]N[dY]F[dW]MNEYYGW[dT]M[dN]M[dC]RGK-NH2
SMILES: CCCC[C@@H](NC(=O)[C@H](CCC(=O)O)NC(=O)CNC(=O)[C@H](CCCNC(=N)N)NC(C)=O)C(=O)N[C@@H](CC(N)=O)C(=O)N[C@H](Cc1ccc(O)cc1)C(=O)N[C@@H](Cc1ccccc1)C(=O)N[C@H](Cc1c[nH]c2ccccc12)C(=O)N[C@@H](CCSC)C(=O)N[C@@H](CC(N)=O)C(=O)N[C@@H](CCC(=O)O)C(=O)N[C@@H](Cc1ccc(O)cc1)C(=O)N[C@@H](Cc1ccc(O)cc1)C(=O)NCC(=O)N[C@@H](Cc1c[nH]c2ccccc12)C(=O)N[C@@H](C(=O)N[C@@H](CCSC)C(=O)N[C@H](CC(N)=O)C(=O)N[C@@H](CCSC)C(=O)N[C@H](CS)C(=O)N[C@@H](CCCNC(=N)N)C(=O)NCC(=O)N[C@@H](CCCCN)C(N)=O)[C@H](C)O
B5: AP536m (peptide)
peptide: Ac-RGE[dL]N[dY]F[dW]MNEYYGW[dT]C[dN]M[dR]MGK-NH2
SMILES: CSCC[C@H](NC(=O)[C@@H](CCCNC(=N)N)NC(=O)[C@H](CCSC)NC(=O)[C@@H](CC(N)=O)NC(=O)[C@H](CS)NC(=O)[C@H](NC(=O)[C@H](Cc1c[nH]c2ccccc12)NC(=O)CNC(=O)[C@H](Cc1ccc(O)cc1)NC(=O)[C@H](Cc1ccc(O)cc1)NC(=O)[C@H](CCC(=O)O)NC(=O)[C@H](CC(N)=O)NC(=O)[C@H](CCSC)NC(=O)[C@@H](Cc1c[nH]c2ccccc12)NC(=O)[C@H](Cc1ccccc1)NC(=O)[C@@H](Cc1ccc(O)cc1)NC(=O)[C@H](CC(N)=O)NC(=O)[C@@H](CC(C)C)NC(=O)[C@H](CCC(=O)O)NC(=O)CNC(=O)[C@H](CCCNC(=N)N)NC(C)=O)[C@H](C)O)C(=O)NCC(=O)N[C@@H](CCCCN)C(N)=O
B6: AP533m (peptide)
peptide: Ac-RGE[dNle]N[dY]F[dW]MNEYYGW[dT]M[dN]M[dR]CGK-NH2
SMILES: CCCC[C@@H](NC(=O)[C@H](CCC(=O)O)NC(=O)CNC(=O)[C@H](CCCNC(=N)N)NC(C)=O)C(=O)N[C@@H](CC(N)=O)C(=O)N[C@H](Cc1ccc(O)cc1)C(=O)N[C@@H](Cc1ccccc1)C(=O)N[C@H](Cc1c[nH]c2ccccc12)C(=O)N[C@@H](CCSC)C(=O)N[C@@H](CC(N)=O)C(=O)N[C@@H](CCC(=O)O)C(=O)N[C@@H](Cc1ccc(O)cc1)C(=O)N[C@@H](Cc1ccc(O)cc1)C(=O)NCC(=O)N[C@@H](Cc1c[nH]c2ccccc12)C(=O)N[C@@H](C(=O)N[C@@H](CCSC)C(=O)N[C@H](CC(N)=O)C(=O)N[C@@H](CCSC)C(=O)N[C@H](CCCNC(=N)N)C(=O)N[C@@H](CS)C(=O)NCC(=O)N[C@@H](CCCCN)C(N)=O)[C@H](C)O
B7: AP532m (peptide)
peptide: Ac-RGE[dM]C[dY]F[dW]MNEYYGW[dT]M[dN]M[dR][Nle]GK-NH2
SMILES: CCCC[C@H](NC(=O)[C@@H](CCCNC(=N)N)NC(=O)[C@H](CCSC)NC(=O)[C@@H](CC(N)=O)NC(=O)[C@H](CCSC)NC(=O)[C@H](NC(=O)[C@H](Cc1c[nH]c2ccccc12)NC(=O)CNC(=O)[C@H](Cc1ccc(O)cc1)NC(=O)[C@H](Cc1ccc(O)cc1)NC(=O)[C@H](CCC(=O)O)NC(=O)[C@H](CC(N)=O)NC(=O)[C@H](CCSC)NC(=O)[C@@H](Cc1c[nH]c2ccccc12)NC(=O)[C@H](Cc1ccccc1)NC(=O)[C@@H](Cc1ccc(O)cc1)NC(=O)[C@H](CS)NC(=O)[C@@H](CCSC)NC(=O)[C@H](CCC(=O)O)NC(=O)CNC(=O)[C@H](CCCNC(=N)N)NC(C)=O)[C@H](C)O)C(=O)NCC(=O)N[C@@H](CCCCN)C(N)=O

What follows are binders tested against Aβ42 (UniProt P05067 672-713) (assay: cell-based or functional assay).
Sequence of Aβ42 (P05067 672-713 limits assumed): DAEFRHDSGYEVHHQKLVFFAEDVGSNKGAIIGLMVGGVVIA

Row | % inhibition of fibril formation (ThT), AP:Aβ42 1:1 | % inhibition of fibril formation (ThT), AP:Aβ42 1:10 | % inhibition of fibril formation (ThT), AP:Aβ42 1:100 | Binder
1 | 29.2% | 0% | 0% | B1
2 | 62.3% | 31.3% | 0% | B2
3 | 85.2% | 68.2% | 51.4% | Ac-RGE[dNle]N[dY]F[dW]MNEYYGW[dT]M[dN]M[dR]CGK-NH2 (also: disulfide-linked homodimer via Cys21) [AP533d]
4 | 54.2% | 0% | 0% | B3
5 | 40.2% | 11.2% | 0% | B4
6 | 94.2% | 75.4% | 64.3% | Ac-RGE[dM]C[dY]F[dW]MNEYYGW[dT]M[dN]M[dR][Nle]GK-NH2 (also: disulfide-linked homodimer via Cys5) [AP532d]
7 | 100% | 85.2% | 43.1% | Ac-RGE[dL]N[dY]F[dW]MNEYYGW[dT]C[dN]M[dR]MGK-NH2 (also: homodimer: Cys17 disulfide-bonded to Cys17 of other copy) [AP536d]
8 | 90% | 81.4% | 48.2% | Ac-RGN[dW]N[dE]S[dK]MNEYYGW[dM]L[dM]C[dT]MGR-NH2 (also: disulfide-linked homodimer via Cys19) [AP501d]
9 | 100% | 92.2% | 51.3% | Ac-RGE[dNle]N[dY]F[dW]MNEYYGW[dT]M[dN]M[dC]RGK-NH2 (also: disulfide-linked homodimer via Cys20) [AP534d]
10 | 74.1% | 21.4% | 0% | B5
11 | 40.3% | 0% | 0% | B6
12 | 90.2% | 82.3% | 72% | Ac-RGE[dL]N[dY]F[dW]MNECYGW[dT]M[dN]M[dR]MGK-NH2 (also: homodimer: Cys12 disulfide-bonded to Cys12 of other copy) [AP537d]
13 | 100% | 98.2% | 53.7% | Ac-RGE[dY]N[dC]F[dW]MNEYYGW[dT]M[dN]M[dR]MGK-NH2 (also: homodimer: D-Cys6 disulfide-bonded to D-Cys6 of other copy) [AP535d]
14 | 62.1% | 0% | 0% | B7
